Substitutions are numbered along the chain they refer to. Like-named read-outs stand apart in the source and are kept apart here.
What was measured:
[1] = molecular target: T1, SNAP-25 peptide comprising amino acids 134-197 of SEQ ID NO:5 (human); assay: SPR (BIAcore 3000), peptide on CM5 chip, 1:1 fit
[2] = molecular target: T1, SNAP-25 peptide comprising amino acids …

B1: α-SNAP-25 mouse monoclonal antibody 1D3B8 (antibody, V domains shown)
VH: QVKLQESGAELVKPGASVKISCKASGYIFTDHALHWVRQKPEQGLEWIGYIFPGNGNIEYNEKFKGKATLTADKSSSTAYMQLNSLTSGDSAMYFCKKMDYWGQGTTVTVSS
VL: DVLMTQTPLSLPVSLGDQASISCRSSQSIVHSNGNTYLEWYLQKPGQSPKLLIYKVSNRFSGVPDRFSGSGSGTDFTLKISRVEAEDLGVYYCFQGSHVPPTFGAGTKLELKR
Q: How did the Kd [1] turn out when B1 was run?
A: 0.05 nM

Q: And the koff [1]?
A: 5.78e-05 s⁻¹

Q: And the kon [1]?
A: 1.06e+06 M⁻¹ s⁻¹

B2: α-SNAP-25 mouse monoclonal antibody 2C9B10 (antibody, V domains shown)
VH: B1 VH with I28T, A33S, L34I, R38K, E42G, I51L, I58F, Q82H, G89E, M93V
VL: DIQMTQSPASLSASVGETVTITCRTTENIYSYFVWSQQRQGKSPQLRVYNAKSLAEGVPSSFNVSVSGTQFSLKINSLQPEDFGTYHCQHHYGTPYTFGGGTRLEIRR
Q: B2 was tested. Which Kd [1] did it give?
A: 27.1 nM

Q: What about the koff [1] of the same binder?
A: 0.000311 s⁻¹

Q: What about the kon [1] of the same binder?
A: 11500 M⁻¹ s⁻¹

B3: α-SNAP-25 mouse monoclonal antibody 2E2A6 (antibody, V domains shown)
VH: QVQLQQSDAELVKPGASVKISCRASGYTFTDHSIHWVKQQPGQGLEWIGYIFPGNGNIEYNDKFKGKATLTADKSSGTAYMQLNSLTSEDSAVYFCKRMGYWGQGTSVTVSS
VL: DVLMTQTPLTLSVTIGQPASISCKSSQSLLYTNGKTYLTWLFQRPGQSPKRLIYLVSELDSGVPDRFSGSGSGTDFTLEITRVEAEDLGVYYCLQSAHFPFTFGSGTKLEIKR
Q: For B3, which Kd [2] is on record?
A: 0.405 nM

Q: What about the koff [2] of the same binder?
A: 6.74e-05 s⁻¹

Q: What about the kon [2] of the same binder?
A: 166000 M⁻¹ s⁻¹

Q: What about the Kd [1] of the same binder?
A: 0.09 nM

Q: And the koff [1]?
A: 0.000153 s⁻¹

Q: And the kon [1]?
A: 1.7e+06 M⁻¹ s⁻¹

B4: α-SNAP-25 mouse monoclonal antibody 3C1A5 (antibody, V domains shown)
VH: QVKLQESGAELVKPGASVKISCKASGYTFTDHSIHWVKQKPGQGLEWIGYLFPGNGNFEYNEKFKGKATLTADKSSSTVYMYLNSLTSEDSAVYFCKRMGYWGQGTTVTVSS
VL: B3 VL with L3V, Y31N, F42I, K50Q, E58K, E79K, T81S, A97S
Q: With B4 as the binder, how does the Kd [1] read?
A: 1.33 nM

Q: What about the koff [1] of the same binder?
A: 0.000288 s⁻¹

Q: What about the kon [1] of the same binder?
A: 217000 M⁻¹ s⁻¹

Reference: patent publication US20170248602A1
